# Experimental data taken from PMC8519427, “High affinity associations with α-SNAP enable calcium entry via Orai1 channels” (PLoS ONE, 2021).
# T1: human α-SNAP with an Avitag and a C-terminal 6xHis tag (human, UniProt P54920 1-295, biotin (in vitro biotinylated using BirA ligase; Avitag))
# T1 construct: alpha-soluble NSF attachment protein (α-SNAP), human, amplified from HEK 293 cDNA; The methods describe a single preparation; The biotinylated protein was captured on streptavidin tips for BLI; also called biotinylated α-SNAP; Avi-Tagged human α-SNAP; source: E. coli LEMO21(DE3), pET28b, purified; in vitro biotinylated with BirA ligase; not shown: Avitag, C-terminal, kept
# T1 sequence (looked up): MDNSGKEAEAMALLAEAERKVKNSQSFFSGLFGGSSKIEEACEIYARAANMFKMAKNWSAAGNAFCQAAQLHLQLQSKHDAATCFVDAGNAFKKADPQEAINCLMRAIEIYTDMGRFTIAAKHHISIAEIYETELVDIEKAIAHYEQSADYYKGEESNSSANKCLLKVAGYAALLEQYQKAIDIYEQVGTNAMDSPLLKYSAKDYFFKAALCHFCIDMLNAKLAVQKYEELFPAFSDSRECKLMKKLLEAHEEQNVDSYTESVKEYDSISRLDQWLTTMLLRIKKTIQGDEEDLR
# B1: MBP-Stim1 408–442 (CC3 domain) (domain or fragment, human, UniProt Q13586 408-442, looked up)
# chain: KILTAKQALSEVTAALRERLHRWQQIEILCGFQIV
# notes: Cloned into pMAL-c5X in frame with MBP; also called Stim1-CC3; source: E. coli LEMO21(DE3), purified by immobilizing on amylose resin
# Molecular target: T1, human α-SNAP with an Avitag and a …
# Assay: pull-down; MBP- or GST-tagged Stim1 or Orai1 fragments immobilised on amylose or glutathione resin, incubated with 20–50 nM α-SNAP in Ringer's buffer with 0.1% NP-40 and 2 mM imidazole, 1 hr at 4°C; washed thrice; Western blot for α-SNAP
# Conditions: both partners purified
binder,measurement,value
B1,binding result,binds
